Source: PMC12069617

Assays:
Assay in all cases: SEC-MALS
[1] = biological target: PR-B (progesterone receptor isoform B);SRC3 (steroid receptor coactivator 3) (human?;human?, UniProt P06401;Q9Y6Q9 1-933;1-1424, |)
[2] = biological target: PR-A (progesterone receptor isoform A) (UniProt P06401 165-933)
[3] = biological target: PR-B (progesterone receptor isoform B) (UniProt P06401 1-933)
[4] = biological target: PR-B (progesterone receptor isoform B);SRC3 (steroid receptor coactivator 3);p300 (human?;human?;human?, UniProt P06401;Q9Y6Q9;Q09472 1-933;1-1424;1-2414, ||)
Chain of PR-B (progesterone receptor isoform B);SRC3 (steroid receptor coactivator 3);p300 (P06401 whole entry, chain 1 of 3, canonical isoform): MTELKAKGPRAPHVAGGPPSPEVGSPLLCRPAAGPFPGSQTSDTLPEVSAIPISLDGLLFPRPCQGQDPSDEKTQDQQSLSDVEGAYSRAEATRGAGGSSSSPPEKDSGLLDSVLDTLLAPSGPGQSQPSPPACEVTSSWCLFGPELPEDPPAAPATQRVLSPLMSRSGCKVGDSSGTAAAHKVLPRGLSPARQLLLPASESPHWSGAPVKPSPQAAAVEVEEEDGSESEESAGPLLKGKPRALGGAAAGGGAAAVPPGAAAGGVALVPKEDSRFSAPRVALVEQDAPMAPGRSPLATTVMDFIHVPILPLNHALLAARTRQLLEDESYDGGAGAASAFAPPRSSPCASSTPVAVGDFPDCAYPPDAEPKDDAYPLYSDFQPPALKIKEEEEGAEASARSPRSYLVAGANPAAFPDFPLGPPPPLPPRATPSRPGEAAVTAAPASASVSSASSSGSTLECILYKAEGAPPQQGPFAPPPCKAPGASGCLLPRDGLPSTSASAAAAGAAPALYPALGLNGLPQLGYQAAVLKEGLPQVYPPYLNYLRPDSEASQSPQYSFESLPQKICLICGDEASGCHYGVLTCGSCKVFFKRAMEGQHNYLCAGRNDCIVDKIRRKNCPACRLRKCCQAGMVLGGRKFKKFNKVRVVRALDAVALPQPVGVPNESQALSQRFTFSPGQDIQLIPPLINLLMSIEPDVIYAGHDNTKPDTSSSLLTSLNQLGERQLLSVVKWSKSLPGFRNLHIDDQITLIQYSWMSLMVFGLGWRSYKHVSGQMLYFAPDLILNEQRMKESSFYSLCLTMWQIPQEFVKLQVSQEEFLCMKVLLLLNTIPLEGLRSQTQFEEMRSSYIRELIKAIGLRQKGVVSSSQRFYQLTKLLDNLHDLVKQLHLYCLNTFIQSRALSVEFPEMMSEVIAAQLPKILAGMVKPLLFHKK
Chain of PR-B (progesterone receptor isoform B);SRC3 (steroid receptor coactivator 3);p300 (Q9Y6Q9 whole entry, chain 2 of 3, canonical isoform): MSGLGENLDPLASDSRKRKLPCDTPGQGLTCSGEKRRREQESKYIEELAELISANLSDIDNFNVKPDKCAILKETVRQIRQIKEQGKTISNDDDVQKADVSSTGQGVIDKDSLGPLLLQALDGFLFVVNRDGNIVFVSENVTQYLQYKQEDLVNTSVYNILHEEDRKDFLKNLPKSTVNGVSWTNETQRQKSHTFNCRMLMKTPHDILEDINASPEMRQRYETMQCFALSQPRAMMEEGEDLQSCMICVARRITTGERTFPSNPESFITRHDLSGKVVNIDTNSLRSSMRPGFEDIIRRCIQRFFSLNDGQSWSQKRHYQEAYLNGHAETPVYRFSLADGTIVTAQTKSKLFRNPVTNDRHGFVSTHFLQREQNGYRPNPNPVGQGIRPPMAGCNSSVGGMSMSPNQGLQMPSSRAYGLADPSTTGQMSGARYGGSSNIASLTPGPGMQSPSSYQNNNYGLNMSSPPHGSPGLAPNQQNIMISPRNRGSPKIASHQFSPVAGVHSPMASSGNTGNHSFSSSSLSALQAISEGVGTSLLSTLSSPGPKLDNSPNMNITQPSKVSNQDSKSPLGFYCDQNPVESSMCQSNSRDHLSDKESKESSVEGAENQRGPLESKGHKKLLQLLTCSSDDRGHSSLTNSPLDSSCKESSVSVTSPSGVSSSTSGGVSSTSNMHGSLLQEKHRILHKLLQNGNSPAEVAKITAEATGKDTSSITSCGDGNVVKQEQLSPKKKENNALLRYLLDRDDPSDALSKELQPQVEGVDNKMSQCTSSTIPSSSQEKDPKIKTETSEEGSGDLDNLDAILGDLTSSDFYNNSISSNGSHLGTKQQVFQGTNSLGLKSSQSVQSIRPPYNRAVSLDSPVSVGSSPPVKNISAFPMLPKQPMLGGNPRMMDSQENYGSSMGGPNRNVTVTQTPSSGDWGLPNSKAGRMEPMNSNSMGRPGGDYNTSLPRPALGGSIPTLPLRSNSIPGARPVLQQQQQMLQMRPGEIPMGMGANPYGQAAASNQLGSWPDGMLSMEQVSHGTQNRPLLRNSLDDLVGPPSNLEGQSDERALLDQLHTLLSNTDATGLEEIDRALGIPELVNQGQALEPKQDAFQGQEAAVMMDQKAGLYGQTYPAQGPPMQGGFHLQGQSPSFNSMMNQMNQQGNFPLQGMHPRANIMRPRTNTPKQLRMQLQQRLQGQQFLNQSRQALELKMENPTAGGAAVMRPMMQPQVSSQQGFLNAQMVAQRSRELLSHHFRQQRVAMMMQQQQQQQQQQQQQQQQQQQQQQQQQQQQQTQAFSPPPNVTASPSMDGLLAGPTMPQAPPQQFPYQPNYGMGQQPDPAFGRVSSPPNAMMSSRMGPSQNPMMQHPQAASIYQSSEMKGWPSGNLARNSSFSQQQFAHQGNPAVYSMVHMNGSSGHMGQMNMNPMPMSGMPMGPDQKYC
Chain of PR-B (progesterone receptor isoform B);SRC3 (steroid receptor coactivator 3);p300 (Q09472 whole entry, chain 3 of 3, canonical isoform): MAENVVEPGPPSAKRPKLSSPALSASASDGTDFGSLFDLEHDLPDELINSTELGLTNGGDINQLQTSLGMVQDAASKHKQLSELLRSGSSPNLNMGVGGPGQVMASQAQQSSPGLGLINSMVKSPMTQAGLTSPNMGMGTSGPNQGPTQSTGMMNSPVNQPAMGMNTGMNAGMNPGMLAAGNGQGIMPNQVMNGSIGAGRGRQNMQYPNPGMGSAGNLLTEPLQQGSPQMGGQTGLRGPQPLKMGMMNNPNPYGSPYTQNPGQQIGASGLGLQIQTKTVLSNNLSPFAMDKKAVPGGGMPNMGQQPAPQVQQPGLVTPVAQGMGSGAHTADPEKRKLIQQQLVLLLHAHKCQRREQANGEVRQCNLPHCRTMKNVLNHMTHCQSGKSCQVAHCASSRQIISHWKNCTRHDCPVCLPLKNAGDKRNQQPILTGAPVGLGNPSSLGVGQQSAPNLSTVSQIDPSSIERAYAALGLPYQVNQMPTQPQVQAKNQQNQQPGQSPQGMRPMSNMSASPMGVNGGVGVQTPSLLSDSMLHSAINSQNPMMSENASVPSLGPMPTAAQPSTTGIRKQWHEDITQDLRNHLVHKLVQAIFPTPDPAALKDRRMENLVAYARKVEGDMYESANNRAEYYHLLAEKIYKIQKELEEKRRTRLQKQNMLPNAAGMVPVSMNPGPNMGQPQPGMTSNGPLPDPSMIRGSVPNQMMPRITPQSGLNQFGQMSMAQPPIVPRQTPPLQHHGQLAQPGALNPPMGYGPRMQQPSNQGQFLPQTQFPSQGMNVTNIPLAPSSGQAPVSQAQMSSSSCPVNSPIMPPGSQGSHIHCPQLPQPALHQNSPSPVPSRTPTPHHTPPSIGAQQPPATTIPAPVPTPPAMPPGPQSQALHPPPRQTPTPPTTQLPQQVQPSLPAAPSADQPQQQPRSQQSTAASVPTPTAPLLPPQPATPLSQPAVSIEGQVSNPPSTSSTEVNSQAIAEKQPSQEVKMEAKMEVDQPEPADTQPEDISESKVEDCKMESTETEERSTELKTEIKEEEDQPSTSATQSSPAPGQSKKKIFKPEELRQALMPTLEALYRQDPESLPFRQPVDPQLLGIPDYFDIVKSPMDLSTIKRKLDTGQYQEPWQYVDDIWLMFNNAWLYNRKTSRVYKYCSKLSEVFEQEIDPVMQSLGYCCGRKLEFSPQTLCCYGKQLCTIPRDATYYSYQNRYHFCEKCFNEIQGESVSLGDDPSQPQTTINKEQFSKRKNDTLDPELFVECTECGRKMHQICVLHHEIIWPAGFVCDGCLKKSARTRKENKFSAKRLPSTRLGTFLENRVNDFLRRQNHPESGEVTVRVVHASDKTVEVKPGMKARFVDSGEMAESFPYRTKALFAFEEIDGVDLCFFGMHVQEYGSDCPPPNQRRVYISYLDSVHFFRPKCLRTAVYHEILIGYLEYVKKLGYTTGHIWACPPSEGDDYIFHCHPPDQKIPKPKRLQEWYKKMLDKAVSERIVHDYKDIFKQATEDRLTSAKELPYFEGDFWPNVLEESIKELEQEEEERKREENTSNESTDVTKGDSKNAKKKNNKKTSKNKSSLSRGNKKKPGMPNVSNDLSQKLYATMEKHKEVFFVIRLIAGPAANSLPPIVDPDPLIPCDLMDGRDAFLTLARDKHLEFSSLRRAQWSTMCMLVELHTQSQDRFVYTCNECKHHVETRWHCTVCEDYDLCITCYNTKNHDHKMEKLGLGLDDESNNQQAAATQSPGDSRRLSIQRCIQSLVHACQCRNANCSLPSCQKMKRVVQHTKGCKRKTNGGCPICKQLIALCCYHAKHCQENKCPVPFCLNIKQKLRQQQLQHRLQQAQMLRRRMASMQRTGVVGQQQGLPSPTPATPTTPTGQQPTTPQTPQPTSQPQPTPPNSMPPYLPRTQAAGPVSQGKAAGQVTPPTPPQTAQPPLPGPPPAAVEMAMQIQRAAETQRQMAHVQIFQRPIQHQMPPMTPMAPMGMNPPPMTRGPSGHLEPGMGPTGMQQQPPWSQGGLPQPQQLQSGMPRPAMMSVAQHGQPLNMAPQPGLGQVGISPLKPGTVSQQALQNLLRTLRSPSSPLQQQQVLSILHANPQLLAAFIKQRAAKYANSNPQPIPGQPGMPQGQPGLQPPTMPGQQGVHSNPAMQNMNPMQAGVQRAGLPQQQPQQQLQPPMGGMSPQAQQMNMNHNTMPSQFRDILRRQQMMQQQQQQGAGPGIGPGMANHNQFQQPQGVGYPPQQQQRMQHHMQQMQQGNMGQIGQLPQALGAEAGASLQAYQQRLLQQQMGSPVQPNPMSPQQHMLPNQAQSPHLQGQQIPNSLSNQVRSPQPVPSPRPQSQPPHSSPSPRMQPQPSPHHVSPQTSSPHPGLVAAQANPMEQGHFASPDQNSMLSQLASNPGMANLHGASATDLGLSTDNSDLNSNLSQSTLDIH

[5] = biological target: PR-A (progesterone receptor isoform A);SRC3 (steroid receptor coactivator 3) (human?;human?, UniProt P06401;Q9Y6Q9 165-933;1-1424, |)
[6] = biological target: PR-A (progesterone receptor isoform A);SRC3 (steroid receptor coactivator 3);p300 (human?;human?;human?, UniProt P06401;Q9Y6Q9;Q09472 165-933;1-1424;1-2414, ||)

Measured: binding result

Chain of PR-B (progesterone receptor isoform B);SRC3 (steroid receptor coactivator 3) (P06401 whole entry, chain 1 of 2, canonical isoform): as the sequence (P06401 whole entry, chain 1 of 3, canonical isoform) above
Chain of PR-B (progesterone receptor isoform B);SRC3 (steroid receptor coactivator 3) (Q9Y6Q9 whole entry, chain 2 of 2, canonical isoform): as the sequence (Q9Y6Q9 whole entry, chain 2 of 3, canonical isoform) above
Chain of PR-B (progesterone receptor isoform B) (P06401 whole entry, canonical isoform): as the sequence (P06401 whole entry, chain 1 of 3, canonical isoform) above

B1: 32-mer PRE (progesterone response element) (dsDNA)
DNA 1: CATCTTTGAGAACAAACTGTTCTTAAAACGAG
DNA 2: CTCGTTTTAAGAACAGTTTGTTCTCAAAGATG
binds: all assays above
